The series has as its system MS2 coat protein. Description: apparent KD of MS2 coat protein; designed switch direction (-1 OFF switch, 1 ON switch): -1; higher = weaker reporter binding. Summed up:
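Stalled E. coli RNA polymerase transcribed designed RNA switches on Illumina chips, which were then titrated with SNAP-549-labelled MS2 coat protein, doubling from 0.7 or 1.5 nM to 3 µM. Steps lasted from 0.8–1.5 h at the lowest concentration to 10–20 min at the highest. The apparent KD is each design's median over clusters of curve-fitted normalised fluorescence.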

Setting [1] is: input ligand: microRNA oligo, concentration not stated.
[2] abbreviates: Eterna round: R95, input ligand: microRNA oligo, concentration not stated.

“GUUCGACAUGAGGAUCACCCAUGUGAGGAUAUACGAUUAGCUGCUAGGUAGUUAGUAUGUAGAAGGUGCGUGUA [EX1 #71] (Eterna round: R97, puzzle: Exclusion 1)”: the “apparent KD of MS2 coat protein” value (input ligand: FMN 200 uM) amounted to 36 nM and the “apparent KD of MS2 coat protein” value (input ligand: none) was 34.3 nM.
Consider “GUUCUGACAGGAUAUACAUGAGGAUCACCCAUGUGCCCUUAGAGAUGCAAAGCAUCUUGUAGAAGGGUCUGAAC [Omei Ex3 Model Bachelor's Dilema v27] (Eterna round: R97, puzzle: Exclusion 3)”, for which the “apparent KD of MS2 coat protein” value (input ligand: FMN 200 uM) was 42.1 nM and the “apparent KD of MS2 coat protein” value (input ligand: none) was 37.6 nM.
Consider “GUUGUGUAAGGAUAUGCCUGGCCGUGAGGCCAGAUUGAAUAGCAGAAGGUACAUGAGGAUCACCCAUGUACGGG [salish99_ex4_4_001] (Eterna round: R97, puzzle: Exclusion 4)”, for which the “apparent KD of MS2 coat protein” value reads like this: (input ligand: FMN 200 uM) 109 nM; (input ligand: none) 22.7 nM.
“GUUGUGUUAGGAUAUAACAACUACUAAUAAAUUAGUAGUUGUUAGAAGGAACAUGAGGAUCACCCAUGUAUGAC [-21.3, -20.2 kcal, A 36%] (Eterna round: R97, puzzle: Exclusion 4)”: the “apparent KD of MS2 coat protein” value came out at 52.5 nM (input ligand: FMN 200 uM) and 30.5 nM (input ligand: none).
On to “GUUGUUUAUGUAGGAUAUGCCUGGCGUGCCUUUGCAGAAGGACAUGAGGAUCACCCAUGUAUUGCGGUCUGCGUUCAGAUCGCC [salish99_ExNG1_r4_041] (Eterna round: R96, puzzle: Exclusion NG 1)”, for which the “apparent KD of MS2 coat protein” value is, setting by setting: (input ligand: FMN 200 uM) 33.1 nM; under setting [1], 19.1 nM; (input ligand: none) 25.2 nM.
For “GUUGUUUAUGUAGGAUAUGCGAGGCGAGCCUAAGCAGAAGGACAUGAGGAUCACCCAUGUAUUGCGGUCUGCGUUCAGAUCGCU [salish99_ExNG1_r4_016] (Eterna round: R96, puzzle: Exclusion NG 1)”, the “apparent KD of MS2 coat protein” value stood at 183 nM (input ligand: FMN 200 uM), 19.2 nM under setting [1] and 26.9 nM (input ligand: none).
Take “GUUUAGUGAGGAUAUGUGGCUUCGAUCGUGAGAUCGAGGCUACAGAAGGCACAUGAGGAUCACCCAUGUUCCUC [salish99_ex4_r4_104] (Eterna round: R97, puzzle: Exclusion 4)”: the “apparent KD of MS2 coat protein” value reads like this: (input ligand: FMN 200 uM) 516 nM; (input ligand: none) 38.9 nM.
Consider “GUUUUACAUGAGGAUCACCCAUGUGAGGAUAUGUUAUUAAUAGCGAUAGUUAUUGGUGGCAGAAGGCGCGUGAU [JR_Exc1_Sub011] (Eterna round: R97, puzzle: Exclusion 1)”, for which the “apparent KD of MS2 coat protein” value (input ligand: FMN 200 uM) turned out to be 343 nM and the “apparent KD of MS2 coat protein” value (input ligand: none) was determined as 82.6 nM.
Take “UAAAAGCGAGGAUAUACAUGAGGAUCACCCAUGUGAGGCGAAACGCCUCGGGCCAUCAGUAGAAGGUGCAAAAC [Veorgebe] (puzzle: Exclusion 3)”: the “apparent KD of MS2 coat protein” value under setting [2] was found to be 70.7 nM.
In the case of “UAAAAGCUAGGAUAUACAUGAGGAUCACCCAUGUAUUAGGGCAUGAAAUCGGUCCCACGUAGAAGGAGCGACAC [Dilaxeed] (Eterna round: R97, puzzle: Exclusion 3)”, the “apparent KD of MS2 coat protein” value reads like this: (input ligand: FMN 200 uM) 105 nM; (input ligand: none) 24.5 nM.
With “UAAAAGCUAGGAUAUACAUGAGGAUCACCCAUGUCACGGGUCCACUCAUCCUAUACGUGUAGAAGGAGCGACCC [Ceriza] (puzzle: Exclusion 3)”, under setting [2], the “apparent KD of MS2 coat protein” value came out at 20 nM.
As to “UAAAAGGCAGGAUAUGCAGAAAAGGAAACUUUUCAAGAAUGACAUGAGGAUCACCCAUGUAGAAGGGCCUUUUA [Alacar Attempt 3] (Eterna round: R97, puzzle: Exclusion 2)”, the “apparent KD of MS2 coat protein” value runs as follows: (input ligand: FMN 200 uM) 15.5 nM; (input ligand: none) 16.2 nM.
Consider “UAAAAUAGUGUGAGGAUAUGCUGGUCCUUGGAUCAGCAGAAGGCACAUGAGGAUCACCCAUGUAGUUAAUUUUA [Mat - Exclusion 4 - JL Mod - D23] (puzzle: Brourd's mod of Exclusion 4)”, for which the “apparent KD of MS2 coat protein” value under setting [2] came out at 30.8 nM.
As for “UAAACAAGCUAAAGAUCCUACAUGAGGAUCACCCAUGUGCUCGUCUUAUAAGGUACUGUGACGAAAGUCACGGUACC [JL TOV1 3.00] (Eterna round: R97, puzzle: Sensor, turn-off variant 1)”, the “apparent KD of MS2 coat protein” value (input ligand: FMN 200 uM) turned out to be 488 nM and the “apparent KD of MS2 coat protein” value (input ligand: none) worked out at 663 nM.
Regarding “UAAAGUAUAUAGGAUAUCUAGCUGGUAACAGCUAGAGAAGGAUGUACAUGAGGAUCACCCAUGUAGAUCUCAAA [Ex6/15-A3] (Eterna round: R97, puzzle: Exclusion 6)”, the “apparent KD of MS2 coat protein” value turned out to be 19.3 nM (input ligand: FMN 200 uM) and 12.8 nM (input ligand: none).
Turning to “UAAAUGUGAGGAUAUUCGAUGAACACGGAGACGUGUUUAUCGGAGAAGGCACAUGAGGAUCACCCAUGUUCCUU [Mat - Exclusion 4 - JL Mod - D5] (Eterna round: R97, puzzle: Exclusion 4)”, the “apparent KD of MS2 coat protein” value (input ligand: FMN 200 uM) amounted to 216 nM and the “apparent KD of MS2 coat protein” value (input ligand: none) was found to be 24.7 nM.
For “UAACAAAACUGAGGAUAUCCAUAGCAAAACGUUUGAUCCUCUACAUGAGGAUCACCCAUGUAGCAGGAGAAGGCAGAAACAAAG [Orraenso] (Eterna round: R96, puzzle: Exclusion NG 2)”, the “apparent KD of MS2 coat protein” value runs as follows: (input ligand: FMN 200 uM) 28.3 nM; under setting [1], 90.1 nM; (input ligand: none) 21.6 nM.
“UAACAAGCUUUAAGAUCCUACAUGAGGAUCACCCAUGUGCUCGUCUUGUAACGUACUGUGACGAAAGUCACGGUACG [JL TOV1 3.16] (Eterna round: R97, puzzle: Sensor, turn-off variant 1)”: the “apparent KD of MS2 coat protein” value runs as follows: (input ligand: FMN 200 uM) 236 nM; (input ligand: none) 231 nM.
For “UAACAGCGAGGAUAUACAUGAGGAUCACCCAUGUACGGGUCCGGGUUUUCGUCCAAAAGUAGAAGGCGCAAUAA [Laongeedte] (puzzle: Exclusion 3)”, the “apparent KD of MS2 coat protein” value is, setting by setting: (Eterna round: R95, input ligand: FMN 200 uM) 177 nM; under setting [2], 38.4 nM; (Eterna round: R95, input ligand: none) 41.4 nM.
On to “UAACUUUUAGUAAGGAUAUCGGUCCCAAGGGACAACGAGAAGGUACAUGAGGAUCACCCAUGUGAAAUAAGAAU [Mod of Zala 3 - Jieux - Brourd's Mod of Exclusion 4] (Eterna round: R97, puzzle: Brourd's mod of Exclusion 4)”, for which the “apparent KD of MS2 coat protein” value runs as follows: (input ligand: FMN 200 uM) 45.4 nM; (input ligand: none) 21.1 nM.
For the sequence “UAAGAUUACCGAGGAUAUGGUAGUACAUAUUAACCAGAAGGCGGACUCAACAUGAGGAUCACCCAUGUAUAAAGGGUAUUAGGU [JR_ExcNG1_Sub042] (Eterna round: R96, puzzle: Exclusion NG 1)”, the “apparent KD of MS2 coat protein” value is, setting by setting: (input ligand: FMN 200 uM) 84.7 nM; under setting [1], 60.3 nM; (input ligand: none) 60.3 nM.
As to “UAAGUUUUGGUAGGAUAUACUUUAAAUUUCUCUAUCCAUACAUGAGGAUCACCCAUGUUUACAUUGUAGAAGGACCACUAUGUU [JR_ExcNG2_Sub056] (Eterna round: R96, puzzle: Exclusion NG 2)”, the “apparent KD of MS2 coat protein” value under setting [1] amounted to 18.7 nM.
Regarding “UAAUAUCUGCAGGAUAUCGGUGGAGCACACGUAUGAGAAGGGCAGACAUGAGGAUCACCCAUGUAUAGGGUCCG [BotMod 3 - Jieux - Exclusion 6] (Eterna round: R97, puzzle: Exclusion 6)”, the “apparent KD of MS2 coat protein” value (input ligand: FMN 200 uM) amounted to 136 nM and the “apparent KD of MS2 coat protein” value (input ligand: none) is 37.7 nM.
As for “UAAUGUAUAUAGGAUAUCUAGCUGGUAACAGCUAGAGAAGGAUGUACAUGAGGAUCACCCAUGUAAAUCUCAAU [Ex6/12-B2] (Eterna round: R97, puzzle: Exclusion 6)”, the “apparent KD of MS2 coat protein” value turned out to be 32.5 nM (input ligand: FMN 200 uM) and 20.9 nM (input ligand: none).
